Measurements taken from the nanobody polyreactivity screen of Harvey et al. (2022).

Assay: yeast display, Sf9 membrane polyspecificity reagent, FACS + sequencing; frameworks hold sequencing errors
In short: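 Galactose induction of a Saccharomyces cerevisiae BJ5465 synthetic nanobody display library ran 36–48 hours. The cells were then stained for 1 hour at 4 °C with 10% biotinylated, detergent-solubilized Sf9 membrane reagent, pulled down on streptavidin microbeads and FACS-sorted into low and high (top ~1%) gates on expression and reagent-binding fluorescence. Labels for polyreactivity follow the gate of origin.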

Sequence | polyreactivity (PSR sort gate)
QVQLVESGGGLVQAGGSLRLSCAASGSNFYGYAMGWYRQAPGKERELVAAISSGGRTKYADSVKGRFTISRDNAKNTVYLQMNSLKPEDTAVYYCNVSYLVDRWKFGWSMDYWGQGNQVTVSS | low polyreactivity
QVQLVESGGGLVQAGGSLRLSCAASGSNIGLNAMGWSRQAPGKEREWVAAITRISGRTRYADSVKRRFTISRDNAKNTVSLQMNSLKPEDTAVYYCDARFQSTNGHKYYYWGQGTQVTVSS | high polyreactivity
QVQLVESGGGLVQAGGSLRLSCAASGSNLTFYAMGWYRQAPGKERELVAAITWRGGSTYYADSVKGRFTISRDNAKNTVYLQMNSLKPEDTAVYYCAAEQVGYYLNWRDYWGQGTQVTVSS | high polyreactivity
QVQLVESGGGLVQAGGSLRLSCAASGSNLVHYAIGWYRQAPGKERELVAASSRGGSTNYADSVKGRFTISRDNAKNTVYLQMNSLKPEDTAVYYCAARRPWGEYYWGQGTQVTVSS | low polyreactivity
QVQLVESGGGLVQAGGSLRLSCAASGSPFDYNAMGWYRPAPGKERELVAASDVSGDNTYYADSVKGRFTISRDNAKNTVYLQMNSLKPEETAVYYCNADDYWRGTSDYDYWGQGTQVTVSS | low polyreactivity
QVQLVESGGGLVQAGGSLRLSCAASGSPFGDSAMGWYRQAPGKERELVAAISVYGASTYYADSVKGRFTISRDNAKNTVYLHMNSLKPEDTEVYYCAATYDTIGDSWGQGTQVTVSS | low polyreactivity
QVQLVESGGGLVQAGGSLRLSCAASGSPFGSNAMGWYRQAPGKERELVAAISYGGDRTYYADSVKGRFTISRDNAKNTVYLQMISLKPEDTALYYCNARIYKGYNYWGQGTQVTVSS | high polyreactivity
QVQLVESGGGLVQAGGSLRLSCAASGSPFRRYAMGWYRQAPGTERELVAAISWRGGSTRYADSVKGRFTLSRDNAKNTVYLQMNSLKPEDTAVYYCAALGSYGNPPSYNYWGQGTQVTVSS | high polyreactivity
QVQLVESGGGLVQAGGSLRLSCAASGSPFSVYAMGWYRQAPGKERELVAAISWTVGSTYYADSVKGRFTISRDTAKNTVYLQMNSLIPEDTAVYYCAADIYWHYDYWGQGTQVTVSS | high polyreactivity
QVQLVESGGGLVQAGGSLRLSCAASGSSFDDKAMGWYRQAPGKERELVASITYRGGSTYYADSVKGRFTISRDHAKNTVNLHIKSLKPEVTAVYYCDKGHYFKYDYWGQGTQVTVSS | low polyreactivity
QVQLVESGGGLVQAGGSLRLSCAASGSSFDWNAMGWYRQAPGKERELVASITGSGGGTNYADSVKGRFTISRDNAKNTVYLQMNSLKPEDTAVYYCNADGLNFDGHEYWGQGTQVTVSS | low polyreactivity
QVQLVESGGGLVQAGGSLRLSCAASGSSFDWYVMGWYRQAPGKERELVAVISRSGGSTYYADSVKGRFTISRDNAKITVYLQMNSLTPEDTAVYSCGADSRSYYRDVDYWGQGTQVTVSS | low polyreactivity
QVQLVESGGGLVQAGGSLRLSCAASGSSFISNTMGWYRQAPGKERELVAAISSGGDTSYADSVKGRFTISRDNAKNTVYLQMNILKPEDTAVYYCNVDTSATSYSSEYDYWGQGTQVTVSS | low polyreactivity
QVQLVESGGGLVQAGGSLRLSCAASGSSFLSNTMGWYRQAPGKECELVAAITSGGDTSYADSVKGRFTISRDNAKNTVYLHMKILKADDTAVYYCNVDTSATCYSSEYDYWGQGTQVSVSS | low polyreactivity
QVQLVESGGGLVQAGGSLRLSCAASGSSFPGNAMGWYRQAPGKERELVARINDGADTNYADSVKGRFTISRDNAKNTVYLQMNSLKPEDTAVYYCAKPYYDGRTHFDSWGQGTQVTVSS | low polyreactivity
QVQLVESGGGLVQAGGSLRLSCAASGSSFRAYAMGWYRQAPGKERELVAVITYSGDRTYYADSVKGRFTISRDNAKNTVYLQMNSLKPEDTAVYYCAADLQYWHSYSYDDYYYWGQGTQVTVSS | low polyreactivity
QVQLVESGGGLVQAGGSLRLSCAASGSSFRRNAMGWYRQAPGKERELVAAITRGGGSTYYADSVKGRFTISRDNAKNTVYLQMNSLKPEDTAVYYCAAQISATRETMDYWGQGTQVTVSS | high polyreactivity
QVQLVESGGGLVQAGGSLRLSCAASGSSFSHNVMGWYRQAPRKERELVATINWSGGSTYYADSVKGRFTISRDNAKKSDYLQMNSLKPEDTAVYYCAADRQITVYAYDYWGQGTQVTVSS | low polyreactivity
QVQLVESGGGLVQAGGSLRLSCAASGSSFYPYAMGWYRQAPGKERELVAAISRRGGSTYYADSVKGRFTISRDNAKNTVYLQMNSLKPVDTEVYYCNVVTDSPYPVDYWGQGTQVTVSS | high polyreactivity
QVQLVESGGGLVQAGGSLRLSCAASGSTCDYNAMGWYRQAPGKERELVAAITSTGGNTYYADSVKGRFTISRDKAKNTVYLQMNSLKPADTAVYYCNKDVARYPYGKFDYWGQGTQVTVSS | low polyreactivity
QVQLVESGGGLVQAGGSLRLSCAASGSTCVNNDMGLYRQAPGKEGELVAGITTSGGSTYYADSVKGRFTISRDKAKNTVYLQMNSLKPEDTAVYYCAARAFSAWLEMDYWGQCTQVTVSS | low polyreactivity

Sequence | polyreactivity (PSR sort gate)
QVQLVESGGGLVQAGGSLRLSCAASGSTFAANAMGWYRQAPGKERELVAAITSSGGSTYYADSVKGRFTISRDNAKNTVYLQMNSLKPEDTAVYYRNKDIERYVRIYDSWGQGTQVTVSS | low polyreactivity
QVQLVESGGGLVQAGGSLRLSCAASGSTFAAYAMGWYRQAPGKERELVAAISGGRTYYADSVKGRFTISRDNAKNTVYLEMYSLKPEDTAVYYCAKRYFYYTAFNAYGYWGQGTQVTVSS | high polyreactivity
QVQLVESGGGLVQAGGSLRLSCAASGSTFAAYVMGWYRQAPGKERELVAAISTSGGGTYYADSVKGRFTISRDTAKNTVYLQMNSLKPEDTAVYYCAADYGSGSVSYDYWGQGTQVTVSS | low polyreactivity
QVQLVESGGGLVQAGGSLRLSCAASGSTFAFYAMGWYRPAPGKERELVAAITWDGGTTYYADSVKGRFTIARDNAKNTVYLQMNSLKPEDSAVYYCAADYASVSIYDNVPSAPGYDYWGQGTQVTVSS | low polyreactivity
QVQLVESGGGLVQAGGSLRLSCAASGSTFAFYAMGWYRQAPGKERELVAAISFSGGSTYYADSVKGRFTISRDNAKNTVYLQMNSLKPEDTAVYYCNARYPNTRKYDYWGQGTQVTVSS | high polyreactivity
QVQLVESGGGLVQAGGSLRLSCAASGSTFAGNAMGWSRQAPGKERELVAGITSSGARTYYADSVKGRFTISRDNAKNTVYLQMNSLKPEDTAVYYCNKYHFSPYDYWGQGTQVTVSS | high polyreactivity
QVQLVESGGGLVQAGGSLRLSCAASGSTFAGNAMGWYRQAPGKEREFVAAITISVGSTYYADSVKGRFTISRDNAKNTVYLQMNSLTPEDTAVYYCAADFAYYVSLPSRFVYAGYYYWGQGTQVTVTS | low polyreactivity
QVQLVESGGGLVQAGGSLRLSCAASGSTFAGNAMGWYRQAPGKERELVAASTFSGGRTDYADSVKGRFTISRDNAKNTVYLQMNSLNPEDSAVYYCAAPADDTVHYQNYYWGQGTQVTVSS | low polyreactivity
QVQLVESGGGLVQAGGSLRLSCAASGSTFAGYAMGWYRQAPGKERELVATITYSGGSTYYADSVKGRFTISRDNAKNTVYLQKNSLKPEDTAVYYCAKKASYWWGYEYWGQGTQVTVSS | low polyreactivity
QVQLVESGGGLVQAGGSLRLSCAASGSTFAGYTMGWYRQAPGKERELVAAITGGGSTYYADSVKGRFTISRDNAKNTVYLQMNSLKPEDTAVYYCAARWWTYGIGYGYWGQGTQVTVSS | high polyreactivity
QVQLVESGGGLVQAGGSLRLSCAASGSTFAKNAMGWYRQAPGKERELVAAISSGGSTYYADSVKGRFTISRDNAKNTVYLQMNSLKPEDTAVYYCAASWKQGYRTYGYWGQGTQVTVSS | high polyreactivity
QVQLVESGGGLVQAGGSLRLSCAASGSTFAKNAMGWYSQAPGIDRELVAAISSGGSTYYADSVKGRFTIARDNAKNTVYLQMNSLKPEDTAVYYCAASWIQGYRTYGYWGQGTQVTVSS | high polyreactivity
QVQLVESGGGLVQAGGSLRLSCAASGSTFAKYAMGWYRQAPGKERELVASIRLSGGSTYYADSVKGRFTISRDNAKNTVYLQMNSLNPEDTAVYYCNKQFATFYYGFDYYYWGQGTQVTVSS | low polyreactivity
QVQLVESGGGLVQAGGSLRLSCAASGSTFAKYAMGWYRQAPGKERELVATITDGGSTYYADSVKGRFTISRDNAKNTVYLQMNRMKPEDTAVYYCNAVILYWLYTSYVAGWPYDYWGQGTQVTVSS | high polyreactivity
QVQLVESGGGLVQAGGSLRLSCAASGSTFAKYVMGWYRQAHGKERELVAAISRRGSSTYYADSVKGRFTISRDNAKNTVYLQMNSLKPEDTAVYYCAARFRYSGFEGMDYWGQGTQVTVSS | high polyreactivity
QVQLVESGGGLVQAGGSLRLSCAASGSTFANNAMGWYRQAPGKERELVAAISWSGGSTYYADSVKGRFTISRDNAKNTVYLQMNSLKPEDTAVYYCAADSPRYGGYGYWGQGTKVTVSS | low polyreactivity
QVQLVESGGGLVQAGGSLRLSCAASGSTFANYAMGWYRQAPGKERELVAGISWRGGRTYYADSVKGRFTISRDNAKNTVYLQMNSLKPEDTAVYYCAVVHQTFTGDYWGQGTQVTVSS | high polyreactivity
QVQLVESGGGLVQAGGSLRLSCAASGSTFAPYVMGCYRQAPGKQRELVAAIRFNGGRTHYADSVKGRFTISRDNAKNTVYLQMNSLKPEDTAVYYCAAEQWRRRNYWGQGTQVTVSS | high polyreactivity
QVQLVESGGGLVQAGGSLRLSCAASGSTFAQNAMGWYRQAPGKEREFVAAITGTVGSTYYADSVKGRFTISRDNAKNTVYLQMNSLKPEDTAVYYCNTRGFNGRVYPYDYWGQGTQVTVSS | low polyreactivity
QVQLVESGGGLVQAGGSLRLSCAASGSTFAQNTMGWYRQAPGKERELVATISDGGGSTYYADSVKGRFTISRDIAKNTVYLQMNSLKPEDTAVYYCNTDRFWPSDYWGQGTQVTVSS | low polyreactivity
